Starred links: 1 amine or outer side, 2 acyl side, 3 side chain; linkers in the order of their positions; H or OH if unused. Non-standard residues stand in square brackets, D forms with d. Groups on a side chain read outwards from the residue. No end group written: not given here. *: point of attachment. C20 diacid = O=C(O)CCCCCCCCCCCCCCCCCCC(=O)*; γGlu = O=C(O)[C@H](CCC(=O)[*:2])N[*:1]; αMeL = CC(C)C[C@](C)(N)C(=O)O; αMeK = C[C@](N)(CCCCN)C(=O)O; Iva = CC[C@](C)(N)C(=O)O; AEEA = NCCOCCOCC(=O)O; Aib = CC(C)(N)C(=O)O
T1: human GIPR (Homo sapiens, UniProt P48546)
T1 construct: expressed in transfected cells; host or cells: CHO-K1 clonal cell line
T1 sequence (P48546 22-466): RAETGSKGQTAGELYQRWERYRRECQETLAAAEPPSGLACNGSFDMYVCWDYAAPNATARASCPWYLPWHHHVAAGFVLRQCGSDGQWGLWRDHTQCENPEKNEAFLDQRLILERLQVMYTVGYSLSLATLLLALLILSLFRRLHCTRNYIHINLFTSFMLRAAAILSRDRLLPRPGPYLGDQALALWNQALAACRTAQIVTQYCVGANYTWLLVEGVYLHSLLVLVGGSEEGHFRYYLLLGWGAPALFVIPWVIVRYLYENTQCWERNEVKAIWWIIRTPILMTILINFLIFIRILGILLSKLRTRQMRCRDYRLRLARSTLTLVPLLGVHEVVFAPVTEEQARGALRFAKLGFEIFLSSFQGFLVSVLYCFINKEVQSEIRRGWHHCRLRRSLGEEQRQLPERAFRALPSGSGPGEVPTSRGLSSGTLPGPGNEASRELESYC

T2: human glucose-dependent insulinotropic polypeptide receptor (human, UniProt P48546 22-466)
T2 sequence (looked up): T1 sequence (P48546 22-466)

B1: Compound No. 0134 (peptide)
peptide: H[Aib]HGTFTSDLS[αMeK]ILEK([AEEA-AEEA-γGlu-C20 diacid])KAA[Iva]EFVEWLIEGGPSSGAPPPS-NH2
modifications: N-terminus assumed
SMILES: CC[C@H](C)[C@H](NC(=O)[C@H](CC(C)C)NC(=O)[C@H](Cc1c[nH]c2ccccc12)NC(=O)[C@H](CCC(=O)O)NC(=O)[C@@H](NC(=O)[C@H](Cc1ccccc1)NC(=O)[C@H](CCC(=O)O)NC(=O)[C@](C)(CC)NC(=O)[C@H](C)NC(=O)[C@H](C)NC(=O)[C@H](CCCCN)NC(=O)[C@H](CCCCNC(=O)COCCOCCNC(=O)COCCOCCNC(=O)CC[C@H](NC(=O)CCCCCCCCCCCCCCCCCCC(=O)O)C(=O)O)NC(=O)[C@H](CCC(=O)O)NC(=O)[C@H](CC(C)C)NC(=O)[C@@H](NC(=O)[C@](C)(CCCCN)NC(=O)[C@H](CO)NC(=O)[C@H](CC(C)C)NC(=O)[C@H](CC(=O)O)NC(=O)[C@H](CO)NC(=O)[C@@H](NC(=O)[C@H](Cc1ccccc1)NC(=O)[C@@H](NC(=O)CNC(=O)[C@H](Cc1c[nH]cn1)NC(=O)C(C)(C)NC(=O)[C@@H](N)Cc1c[nH]cn1)[C@@H](C)O)[C@@H](C)O)[C@@H](C)CC)C(C)C)C(=O)N[C@@H](CCC(=O)O)C(=O)NCC(=O)NCC(=O)N1CCC[C@H]1C(=O)N[C@@H](CO)C(=O)N[C@@H](CO)C(=O)NCC(=O)N[C@@H](C)C(=O)N1CCC[C@H]1C(=O)N1CCC[C@H]1C(=O)N1CCC[C@H]1C(=O)N[C@@H](CO)C(N)=O
B2: Compound No. 0133 (peptide)
peptide: H[Aib]HGTFTSDLS[αMeK]LLEK([AEEA-AEEA-γGlu-C20 diacid])KAA[Iva]EFVEWLIEGGPSSGAPPPS-NH2
modifications: N-terminus assumed
SMILES: CC[C@H](C)[C@H](NC(=O)[C@H](CC(C)C)NC(=O)[C@H](Cc1c[nH]c2ccccc12)NC(=O)[C@H](CCC(=O)O)NC(=O)[C@@H](NC(=O)[C@H](Cc1ccccc1)NC(=O)[C@H](CCC(=O)O)NC(=O)[C@](C)(CC)NC(=O)[C@H](C)NC(=O)[C@H](C)NC(=O)[C@H](CCCCN)NC(=O)[C@H](CCCCNC(=O)COCCOCCNC(=O)COCCOCCNC(=O)CC[C@H](NC(=O)CCCCCCCCCCCCCCCCCCC(=O)O)C(=O)O)NC(=O)[C@H](CCC(=O)O)NC(=O)[C@H](CC(C)C)NC(=O)[C@H](CC(C)C)NC(=O)[C@](C)(CCCCN)NC(=O)[C@H](CO)NC(=O)[C@H](CC(C)C)NC(=O)[C@H](CC(=O)O)NC(=O)[C@H](CO)NC(=O)[C@@H](NC(=O)[C@H](Cc1ccccc1)NC(=O)[C@@H](NC(=O)CNC(=O)[C@H](Cc1c[nH]cn1)NC(=O)C(C)(C)NC(=O)[C@@H](N)Cc1c[nH]cn1)[C@@H](C)O)[C@@H](C)O)C(C)C)C(=O)N[C@@H](CCC(=O)O)C(=O)NCC(=O)NCC(=O)N1CCC[C@H]1C(=O)N[C@@H](CO)C(=O)N[C@@H](CO)C(=O)NCC(=O)N[C@@H](C)C(=O)N1CCC[C@H]1C(=O)N1CCC[C@H]1C(=O)N1CCC[C@H]1C(=O)N[C@@H](CO)C(N)=O

Assays:
human GIPR = target: T1, human GIPR; assay: cAMP HTRF agonist activity assay in CHO-K1 cells expressing GIPR; type: cell-based; conditions: read-out: Activity against human GIPR (EC50 nM); further: 5% FBS, 0.1% Casein
Procedure, shortened: (§1)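 Clonal CHO-K1 lines, 5000 cells/well, exposed to polypeptides for 30 min at 37°C. Intracellular cAMP read by HTRF (cAMP-d2 conjugate plus anti-cAMP-Eu cryptate in lysis buffer). Relative EC50 from four-parameter nonlinear fit of percent maximum response against concentration.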

human GCGR = target: T3, human GCGR (Homo sapiens, UniProt P47871); assay: cAMP HTRF agonist activity assay in CHO-K1 cells expressing GCGR; type: cell-based; conditions: read-out: Activity against human GCGR (EC50 nM); further: 5% FBS, 0.1% Casein
T3 construct: expressed in transfected cells; host or cells: CHO-K1 clonal cell line
Method: Functional activity was determined in CHO-K1 clonal cell lines expressing GIPR, GLP-1R, and GCGR. […] Each recipient cell (5000 cells/well) was added to an SV 96-well plate (Cisbio, 66PL96025) and incubated with the prepared polypeptide at 37°Cfor 30 min. The resulting increase in intracellular cAMP was quantitatively measured using the cAMP-GS dynamic HTRF assay kit (Cisbio, 62AM4PEJ). Briefly, the intracellular cAMP levels were determined by adding cAMP-d2 conjugate in cell lysis buffer, followed by the antibody anti-cAMP-Eu cryptate (also in cell lysis buffer).
Using the maximum response percentage vs. the added polypeptide concentration, the relative EC50 values were derived through nonlinear regression analysis and fitted to a four-parameter logarithmic equation. For specific data, refer to Tables 7-1 to 7-8 below. […]

[1] = In vivo efficacy in diet-induced obesity (DIO) rat model; conditions: DIO rats
Method: In this experiment, a DIO rat model established on a 45% high-fat diet (HFD) was used to evaluate the effects of compounds on obesity-related indicators in DIO rats.
After one week of acclimatization, all rats were randomly divided into two groups: a normal group and a model group. The rats in the model group were then fed 45% HFD (Medison: MD12032), while the rats in the normal group were fed normal food. The body weight of the rats was measured weekly to monitor the modeling process.
DIO rats fed a high-fat diet for 37 weeks were weighed, and 75 DIO rats (approximately 1100g) and 8 rats (approximately 800g) on a normal diet (Chow diet) were selected and separated into individual cages. Each cage was fed approximately 100g of food at a time, and the food was changed every 48 hours. A preliminary sham dose experiment was then conducted. Subcutaneous acupuncture was performed on the neck once daily at 4 pm for 9 consecutive days. Body weight was measured before each acupuncture session and the effect of sham dose on body weight was observed. A curve of body weight changes over time was plotted. The formal dosing experiment was initiated after the body weight had stabilized.
Six Chow diet rats (weighing approximately 800g) and 30 HFD rats (weighing approximately 1100g) were selected through a preliminary sham dose experiment for subsequent dosing experiments. […] During the experiment, all rats were housed in single cages. The compound was dissolved in PBS solution at pH 7.4. On the day of grouping (Day 1), rats in each group were given the drug by subcutaneous injection in the neck according to their body weight, once daily (QD), as detailed in Table 9. […] The body weight was measured once daily at 15:00 or before administration, and a curve of body weight changes over time was plotted. Food intake: 1-7 days, measured once daily at 15:00 or before administration; 8-40 days, measured once every three days at 15:00 or before administration. A curve of changes in daily/cumulative food intake over time was plotted. Table 9. Dosing information for experimental groups

human GLP-1R = target: T4, human GLP-1R (Homo sapiens, UniProt P43220); assay: cAMP HTRF agonist activity assay in CHO-K1 cells expressing GLP-1R; type: cell-based; conditions: read-out: Activity against human GLP-1R (EC50 nM); further: 5% FBS, 0.1% Casein
T4 construct: expressed in transfected cells; host or cells: CHO-K1 clonal cell line
Procedure, shortened: as §1

[2] = In vivo efficacy in diet-induced obesity (DIO) mouse model; parameters: species or system C57BL/6J mice; conditions: 10 nmol/kg subcutaneous once daily for 24 days
Excerpt: In this example, a DIO mouse model established by high-fat diet induction was used to evaluate the effects on and improvement of obesity and diabetes-related indicators in DIO mice after subcutaneous injection of some of the compounds in the present disclosure.
4.1 Experimental methods: Obese male C57BL/6J mice (23-24 weeks old, obtained from Beijing Vital River Laboratory Animal Technology Co., Ltd.) induced by a high-fat diet were purchased. Six-week-old male C57BL/6J mice were fed a 60% high-fat diet (RD D12492) until their body weight reached 45-50g to obtain DIO model mice. After arriving at the facility and undergoing a week of acclimatization feeding, the animals were randomly divided into groups according to their body weight and administered vehicle (model group), LY3437943, Compound 15, Compound 16, Compound 17 and Compound 18 via subcutaneous injection in the neck. The compound was administered at a dose of 10 nmol/kg, and the frequency of administration was once daily via subcutaneous injection for 24 days. Each group contained 5 DIO mice. According to the experimental design, the body weight of each mouse was weighed and recorded daily at 3 pm or before administration, the average body weight of each group of mice was calculated, and a curve of body weight change over time was plotted. After the experiment, the fat and other organs of the mice were removed from various parts of the body, weighed, and recorded.

[3] = target: human glucagon-like peptide-1 receptor (human, UniProt P43220 24-463); assay: cell-based or functional assay
human glucagon receptor = human glucagon receptor (human, UniProt P47871 26-477); assay: cell-based or functional assay
[4] = target: T2, human glucose-dependent insulinotropic …; assay: cell-based or functional assay
[5] = after dose adjustment, 10 nmol/kg subcutaneous QD

Sequence of human glucagon receptor (P47871 26-477): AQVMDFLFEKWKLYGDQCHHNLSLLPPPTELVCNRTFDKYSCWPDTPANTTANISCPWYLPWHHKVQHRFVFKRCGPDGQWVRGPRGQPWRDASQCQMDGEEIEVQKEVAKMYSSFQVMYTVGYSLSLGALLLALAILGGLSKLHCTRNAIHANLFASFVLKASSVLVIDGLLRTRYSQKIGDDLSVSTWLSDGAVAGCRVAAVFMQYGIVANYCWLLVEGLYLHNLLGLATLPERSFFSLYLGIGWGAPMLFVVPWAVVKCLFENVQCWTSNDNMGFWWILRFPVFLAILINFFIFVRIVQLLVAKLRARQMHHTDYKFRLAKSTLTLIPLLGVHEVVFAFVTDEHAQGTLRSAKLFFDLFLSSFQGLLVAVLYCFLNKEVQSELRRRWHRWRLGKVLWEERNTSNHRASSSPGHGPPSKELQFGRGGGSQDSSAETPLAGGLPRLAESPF
T3 sequence (P47871 26-477): as above
T4 sequence (P43220 24-463): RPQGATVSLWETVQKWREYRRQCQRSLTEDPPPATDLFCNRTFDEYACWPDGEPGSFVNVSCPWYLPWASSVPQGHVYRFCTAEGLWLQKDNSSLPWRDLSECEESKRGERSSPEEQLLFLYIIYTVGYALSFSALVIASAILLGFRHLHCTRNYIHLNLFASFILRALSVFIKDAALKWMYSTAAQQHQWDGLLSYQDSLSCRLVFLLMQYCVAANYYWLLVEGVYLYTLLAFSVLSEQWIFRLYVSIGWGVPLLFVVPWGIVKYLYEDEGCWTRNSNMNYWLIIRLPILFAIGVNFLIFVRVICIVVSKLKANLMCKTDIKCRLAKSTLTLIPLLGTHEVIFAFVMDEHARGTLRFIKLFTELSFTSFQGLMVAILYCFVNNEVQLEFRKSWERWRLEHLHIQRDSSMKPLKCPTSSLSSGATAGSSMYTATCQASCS

Molecule	Activity against human GLP-1R (EC50 nM) [3]	Activity against human GCGR (EC50 nM) (human glucagon receptor)	Activity against human GIPR (EC50 nM) [4]	further results
CC[C@H](C)[C@H](NC(=O)[C@H](Cc1ccccc1)NC(=O)[C@H](C)NC(=O)C(C)(C)NC(=O)[C@H](CCC(N)=O)NC(=O)[C@H](C)NC(=O)[C@H](CCCCNC(=O)COCCOCCNC(=O)CC[C@H](NC(=O)CCCCCCCCCCCCCCCCCCC(=O)O)C(=O)O)NC(=O)[C@H](CCCCN)NC(=O)[C@H](CC(=O)O)NC(=O)[C@H](CC(C)C)NC(=O)[C@](C)(CC(C)C)NC(=O)[C@@H](NC(=O)[C@H](CO)NC(=O)[C@H](Cc1ccc(O)cc1)NC(=O)[C@H](CC(=O)O)NC(=O)[C@H](CO)NC(=O)[C@@H](NC(=O)[C@H](Cc1ccccc1)NC(=O)[C@@H](NC(=O)CNC(=O)[C@H](CCC(N)=O)NC(=O)C(C)(C)NC(=O)[C@@H](N)Cc1ccc(O)cc1)[C@@H](C)O)[C@@H](C)O)[C@@H](C)CC)C(=O)N[C@@H](CCC(=O)O)C(=O)N[C@@H](Cc1ccc(O)cc1)C(=O)N[C@@H](CC(C)C)C(=O)N[C@@H](CC(C)C)C(=O)N[C@@H](CCC(=O)O)C(=O)NCC(=O)NCC(=O)N1CCC[C@H]1C(=O)N[C@@H](CO)C(=O)N[C@@H](CO)C(=O)NCC(=O)N[C@@H](C)C(=O)N1CCC[C@H]1C(=O)N1CCC[C@H]1C(=O)N1CCC[C@H]1C(=O)N[C@@H](CO)C(N)=O [LY3437943, reference compound]	–	–	–	EC50 (human GIPR): 0.002 nM; EC50 (human GCGR): 0.412 nM; 24h food intake compared with the model group [1, 5]: significantly reduced; cumulative food intake compared with the model group [1, 5]: significantly reduced; cumulative food intake ([1]; entire administration period (before and after dose adjustment), 1 then 10 nmol/kg subcutaneous QD): 273.8 ± 15.0 g; body weight loss at the end of the experiment ([1]; subcutaneous QD, 1 nmol/kg adjusted to 10 nmol/kg from day 15): 29.4%; EC50 (human GLP-1R): 0.08 nM; body weight of DIO mice compared with the test group given the vehicle [2]: significant reduction in body weight; body weight reduction at the experimental endpoint ([2]; DIO mice): 30.4%
B1	0.017 nM	0.025 nM	0.002 nM	–
H[Aib]HGTFTSDYSILLEK([AEEA-AEEA-γGlu-C20 diacid])KAA[Iva]EFVEWLLAGGPSSGAPPPS-NH2 [Compound No. 0135]	0.013 nM	0.019 nM	0.001 nM	–
H[Aib]HGTFTSDLSI[αMeL]LEK([AEEA-AEEA-γGlu-C20 diacid])KAA[Iva]EFVEWLLAGGPSSGAPPPS-NH2 [Compound No. 0138]	0.019 nM	0.055 nM	0.0006 nM	–
H[Aib]HGTFTSDYSI[αMeL]LEK([AEEA-AEEA-γGlu-C20 diacid])KAA[Iva]EFVEWLLAGGPSSGAPPPS-NH2 [Compound No. 0137]	0.013 nM	0.047 nM	0.001 nM	–
B2	0.016 nM	0.03 nM	0.002 nM	–
